Results taken from the supplement of paper PMC11246515.
± gives the standard deviation of the averaged measurements.

Test: total protein half-life in vivo (active degradation + dilution); higher = more stable protein
[1] = E. coli NCM3722 delta-clpP delta-lon delta-hslV, growth: N-lim chemostat, doubling time 6 h
[2] = E. coli NCM3722 delta-clpP, growth: N-lim chemostat, doubling time 6 h
[3] = E. coli NCM3722 delta-hslV, growth: N-lim chemostat, doubling time 6 h
[4] = E. coli NCM3722 delta-lon, growth: N-lim chemostat, doubling time 6 h
[5] = E. coli NCM3722 delta-smpB, growth: N-lim chemostat, doubling time 6 h
[6] = wild type E. coli NCM3722, growth: C-lim chemostat, doubling time 3 h
[7] = wild type E. coli NCM3722, growth: C-lim chemostat, doubling time 6 h
[8] = wild type E. coli NCM3722, growth: C-lim chemostat, doubling time 12 h
[9] = wild type E. coli NCM3722, growth: N-lim chemostat, doubling time 6 h
[10] = wild type E. coli NCM3722, growth: N-lim chemostat, doubling time 12 h
[11] = wild type E. coli NCM3722, growth: P-lim chemostat, doubling time 6 h
[12] = wild type E. coli NCM3722, growth: P-lim chemostat, doubling time 12 h

Row | Sequence | total protein half-life in vivo [1] [h] | total protein half-life in vivo [2] [h] | total protein half-life in vivo [3] [h] | total protein half-life in vivo [4] [h] | total protein half-life in vivo [5] [h] | total protein half-life in vivo [6] [h] | total protein half-life in vivo [7] [h] | total protein half-life in vivo [8] [h] | total protein half-life in vivo [9] [h] | total protein half-life in vivo [10] [h] | total protein half-life in vivo [11] [h] | total protein half-life in vivo [12] [h]
1 | MSTTIEKIQRQIAENPILLYMKGSPKLPSCGFSAQAVQALAACGERFAYVDILQNPDIRAELPKYANWPTFPQLWVDGELVGGCDIVIEMYQRGELQQLIKETAAKYKSEEPDAE [P0AC69] | 6.29 | 5.76 ± 1.2 | 3.71 ± 0.071 | 4.31 ± 0.19 | 3.43 ± 0.19 | 2.37 ± 0.19 | 5.03 ± 0.74 | 6.84 ± 0.26 | 3.25 ± 0.33 | 5.45 ± 0.99 | 4.67 ± 1.3 | 11.4 ± 3.8
2 | MADNKPELQRGLEARHIELIALGGTIGVGLFMGAASTLKWAGPSVLLAYIIAGLFVFFIMRSMGEMLFLEPVTGSFAVYAHRYMSPFFGYLTAWSYWFMWMAVGISEITAIGVYVQFWFPEMAQWIPALIAVALVALANLAAVRLYGEIEFWFAMIKVTTIIVMIVIGLGVIFFGFGNGGQSIGFSNLTEHGGFFAGGWKGFLTALCIVVASYQGVELIGITAGEAKNPQVTLRSAVGKVLWRILIFYVGAIFVIVTIFPWNEIGSNGSPFVLTFAKIGITAAAGIINFVVLTAALSGCNSGMYSCGRMLYALAKNRQLPAAMAKVSRHGVPVAGVAVSIAILLIGSCLNYIIPNPQRVFVYVYSASVLPGMVPWFVILISQLRFRRAHKAAIASHPFRSILFPWANYVTMAFLICVLIGMYFNEDTRMSLFVGIIFMLAVTAIYKVFGLNRHGKAHKLEE | 6.95 |  | 6.01 ± 0.26 | 5.41 ± 0.71 | 5.99 ± 1.1 |  | 6.82 ± 0.17 | 10.7 | 5.01 | 11.7 | > 8 | 12.7 ± 2.9
3 | MTTMNPFLVQSTLPYLAPHFDQIANHHYRPAFDEGMQQKRAEIAAIALNPQMPDFNNTILALEQSGELLTRVTSVFFAMTAAHTNDELQRLDEQFSAELAELANDIYLNGELFARVDAVWQRRESLGLDSESIRLVEVIHQRFVLAGAKLAQADKAKLKVLNTEAATLTSQFNQRLLAANKSGGLVVNDIAQLAGMSEQEIALAAEAAREKGLDNKWLIPLLNTTQQPALAEMRDRATREKLFIAGWTRAEKNDANDTRAIIQRLVEIRAQQATLLGFPHYAAWKIADQMAKTPEAALNFMREIVPAARQRASDELASIQAVIDKQQGGFSAQPWDWAFYAEQVRREKFDLDEAQLKPYFELNTVLNEGVFWTANQLFGIKFVERFDIPVYHPDVRVWEIFDHNGVGLALFYGDFFARDSKSGGAWMGNFVEQSTLNKTHPVIYNVCNYQKPAAGEPALLLWDDVITLFHEFGHTLHGLFARQRYATLSGTNTPRDFVEFPSQINEHWATHPQVFARYARHYQSGAAMPDELQQKMRNASLFNKGYEMSELLSAALLDMRWHCLEENEAMQDVDDFELRALVAENMDLPAIPPRYRSSYFAHIFGGGYAAGYYAYLWTQMLADDGYQWFVEQGGLTRENGLRFREAILSRGNSEDLERLYRQWRGKAPKIMPMLQHRGLNI | 5.48 ± 0.74 | 4.67 ± 0.22 | 4.335 ± 0.038 | 4.65 ± 0.16 | 4.43 ± 0.24 | 3.13 ± 0.13 | 5.67 ± 0.52 | 9.87 ± 0.43 | 4.53 ± 0.2 | 7.84 ± 0.66 | 6.12 ± 0.066 | 11.7 ± 0.94
4 | MTDDFAPDGQLAKAIPGFKPREPQRQMAVAVTQAIEKGQPLVVEAGTGTGKTYAYLAPALRAKKKVIISTGSKALQDQLYSRDLPTVSKALKYTGNVALLKGRSNYLCLERLEQQALAGGDLPVQILSDVILLRSWSNQTVDGDISTCVSVAEDSQAWPLVTSTNDNCLGSDCPMYKDCFVVKARKKAMDADVVVVNHHLFLADMVVKESGFGELIPEADVMIFDEAHQLPDIASQYFGQSLSSRQLLDLAKDITIAYRTELKDTQQLQKCADRLAQSAQDFRLQLGEPGYRGNLRELLANPQIQRAFLLLDDTLELCYDVAKLSLGRSALLDAAFERATLYRTRLKRLKEINQPGYSYWYECTSRHFTLALTPLSVADKFKELMAQKPGSWIFTSATLSVNDDLHHFTSRLGIEQAESLLLPSPFDYSRQALLCVLRNLPQTNQPGSARQLAAMLRPIIEANNGRCFMLCTSHAMMRDLAEQFRATMTLPVLLQGETSKGQLLQQFVSAGNALLVATSSFWEGVDVRGDTLSLVIIDKLPFTSPDDPLLKARMEDCRLRGGDPFDEVQLPDAVITLKQGVGRLIRDADDRGVLVICDNRLVMRPYGATFLASLPPAPRTRDIARAVRFLAIPSSR | 5.98 ± 0.95 |  |  |  |  | 3.37 |  |  |  |  |  | 
5 | MKKMMIATLAAASVLLAVANQAXAGATLDAVQKKGFVQCGISDGLPGFSYADADGKFSGIDVDICRGVAAAVFGDDTKVKYTPLTAKERFTALQSGEVDLLSRNTTWTSSRDAGMGMAFTGVTYYDGIGFLTHDKAGLKSAKELDGATVCIQAGTDTELNVADYFKANNMKYTPVTFDRSDESAKALESGRCDTLASDQSQLYALRIKLSNPAEWIVLPEVISKEPLGPVVRRGDDEWFSIVRWTLFAMLNAEEMGINSQNVDEKAANPATPDMAHLLGKEGDYGKDLKLDNKWAYNIIKQVGNYSEIFERNVGSESPLKIKRGQNNLWNNGGIQYAPPVR | 4.74 ± 0.45 |  |  |  |  |  |  |  |  |  |  | 
6 | MRILVLGVGNILLTDEAIGVRIVEALEQRYILPDYVEILDGGTAGMELLGDMANRDHLIIADAIVSKKNAPGTMMILRDEEVPALFTNKISPHQLGLADVLSALRFTGEFPKKLTLVGVIPESLEPHIGLTPTVEAMIEPALEQVLAALRESGVEAIPREAIHD | 5.25 ± 0.57 | 4.51 ± 0.38 | 4.14 ± 0.58 | 5.3 ± 0.96 | 3.53 ± 0.16 | 3.09 ± 0.27 | 5.7 ± 1.1 | 11.5 ± 0.37 | 4.28 ± 0.7 | 6.81 ± 0.15 | 6.77 ± 0.8 | 11 ± 0.18
7 | MATNLRGVMAALLTPFDQQQALDKASLRRLVQFNIQQGIDGLYVGGSTGEAFVQSLSEREQVLEIVAEEAKGKIKLIAHVGCVSTAESQQLAASAKRYGFDAVSAVTPFYYPFSFEEHCDHYRAIIDSADGLPMVVYNIPALSGVKLTLDQINTLVTLPGVGALKQTSGDLYQMEQIRREHPDLVLYNGYDEIFASGLLAGADGGIGSTYNIMGWRYQGIVKALKEGDIQTAQKLQTECNKVIDLLIKTGVFRGLKTVLHYMDVVSVPLCRKPFGPVDEKYLPELKALAQQLMQERG [P0A6L4] | 2.77 ± 0.23 | 1.88 ± 0.19 | 3.01 | 2.66 | 1.84 ± 0.085 | 2.81 ± 0.23 | 3.81 ± 0.35 | 5.83 ± 1.4 | 2.28 | 2.1 ± 0.3 | 4.43 ± 0.18 | 8.79
8 | MSKPIVMERGVKYRDADKMALIPVKNVATEREALLRKPEWMKIKLPADSTRIQGIKAAMRKNGLHSVCEEASCPNLAECFNHGTATFMILGAICTRRCPFCDVAHGRPVAPDANEPVKLAQTIADMALRYVVITSVDRDDLRDGGAQHFADCITAIREKSPQIKIETLVPDFRGRMDRALDILTATPPDVFNHNLENVPRIYRQVRPGADYNWSLKLLERFKEAHPEIPTKSGLMVGLGETNEEIIEVMRDLRRHGVTMLTLGQYLQPSRHHLPVQRYVSPDEFDEMKAEALAMGFTHAACGPFVRSSYHADLQAKGMEVK | 5.22 ± 1 | 1.56 ± 0.071 | 1.64 ± 0.38 | 1.84 ± 0.034 | 1.27 ± 0.14 | 1.23 ± 0.056 | 1.93 ± 0.095 | 2.47 ± 0.21 | 1.67 ± 0.095 | 2.4 ± 0.28 | 1.74 ± 0.22 | 3.3 ± 0.49
